T1: monkey IL-25 expressed with a C-terminal myc-myc-hexahistidine tag (M. fascicularis (cynomolgus monkey))
T1 construct: also called monkey IL-25-MMH; MfIL-25-MMH
T1 chain: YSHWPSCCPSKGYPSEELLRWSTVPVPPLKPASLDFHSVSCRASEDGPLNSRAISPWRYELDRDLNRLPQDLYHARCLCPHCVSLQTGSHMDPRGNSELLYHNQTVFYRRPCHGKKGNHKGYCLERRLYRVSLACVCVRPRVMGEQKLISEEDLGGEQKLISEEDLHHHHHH

T2: human IL-25 expressed with a C-terminal myc-myc-hexahistidine tag (human)
T2 construct: also called human IL-25-MMH; hIL-25-MMH
T2 chain: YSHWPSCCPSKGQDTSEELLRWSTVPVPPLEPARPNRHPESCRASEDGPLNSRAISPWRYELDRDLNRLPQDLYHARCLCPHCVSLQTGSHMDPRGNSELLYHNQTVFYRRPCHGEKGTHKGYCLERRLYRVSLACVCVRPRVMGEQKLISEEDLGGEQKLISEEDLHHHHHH

T3: rat IL-25 expressed with a C-terminal myc-myc-hexahistidine tag (rat)
T3 construct: also called rat IL-25-MMH
T3 chain: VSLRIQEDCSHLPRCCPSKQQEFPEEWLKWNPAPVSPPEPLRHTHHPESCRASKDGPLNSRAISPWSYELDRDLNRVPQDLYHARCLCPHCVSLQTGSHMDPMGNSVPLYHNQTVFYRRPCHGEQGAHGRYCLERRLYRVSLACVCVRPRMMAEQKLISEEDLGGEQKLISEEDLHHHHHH

T4: mouse IL-25 expressed with a C-terminal myc-myc-hexahistidine tag (mouse)
T4 construct: also called mouse IL-25-MMH; mIL-25-MMH
T4 chain: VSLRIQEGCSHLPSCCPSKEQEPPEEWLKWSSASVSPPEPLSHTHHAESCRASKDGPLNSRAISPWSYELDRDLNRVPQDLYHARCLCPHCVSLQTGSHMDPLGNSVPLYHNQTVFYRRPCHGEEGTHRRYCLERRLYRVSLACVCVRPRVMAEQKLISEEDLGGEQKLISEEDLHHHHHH


Experiments:
[1] = molecular target: T1, monkey IL-25 expressed with a …; assay: SPR Biacore, captured mAb, 25°C;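 as to 100 nM Human IL-25-MMH Bound (RU): biacore 4000 SPR with IL-25-MMH as analyte over purified anti-IL-25 antibodies, association and dissociation rates derived from fitting sensorgrams to a 1:1 binding model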;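 as to 100 nM Monkey IL-25-MMH Bound (RU): Real-time surface plasmon resonance on a Biacore 4000, with IL-25-MMH binding to purified anti-IL-25 antibodies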
Procedure: (§1) Equilibrium dissociation constants (KD values) for IL-25 binding to purified anti-IL-25 antibodies were determined using a real-time surface plasmon resonance biosensor assay on a Biacore 4000 instrument (GE Healthcare). […] All the IL-25 reagents were expressed with a C-terminal myc-myc-hexahistidine tag (referred to herein as “IL-25-MMH”). […] Kinetic association (kₐ) and dissociation (kd) rate constants were determined by fitting the real-time sensorgrams to a 1:1 binding model using Scrubber 2.0c curve fitting software.

[2] = molecular target: T2, human IL-25 expressed with a C-terminal …; assay: SPR Biacore, captured mAb, 37°C
Procedure: as §1

[3] = molecular target: T2, human IL-25 expressed with a C-terminal …; assay: SPR Biacore, captured mAb, 25°C;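 as to 100 nM Human IL-25-MMH Bound (RU): biacore 4000 SPR with IL-25-MMH as analyte over purified anti-IL-25 antibodies, association and dissociation rates derived from fitting sensorgrams to a 1:1 binding model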;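 as to 100 nM Monkey IL-25-MMH Bound (RU): Real-time surface plasmon resonance on a Biacore 4000, with IL-25-MMH binding to purified anti-IL-25 antibodies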
Procedure: as §1

[4] = molecular target: T3, rat IL-25 expressed with a C-terminal …; assay: SPR Biacore, captured mAb, 25°C and 37°C
Procedure: as §1

[5] = molecular target: T4, mouse IL-25 expressed with a C-terminal …; assay: SPR Biacore, captured mAb, 25°C and 37°C
Procedure: as §1

| Binder | 100 nM Monkey IL-25-MMH Bound (RU) [1] | Kd [1] | koff [1] | kon [1] | t½ [1] | 100 nM Human IL-25-MMH Bound (RU) [2] | Kd [2] | koff [2] | kon [2] | t½ [2] | 100 nM Human IL-25-MMH Bound (RU) [3] | Kd [3] | koff [3] | kon [3] | t½ [3] | binding result [4] | binding result [5] |
| --- | --- | --- | --- | --- | --- | --- | --- | --- | --- | --- | --- | --- | --- | --- | --- | --- | --- |
| H4H10900P (antibody, human IgG4, V domains shown) VH: QVQLQESGPGLVRPSETLSLICTVSGGSINSYYWSWIRQPPGKGLEWIGYIYYSGSTNYNPSLKSRVTISGDTSKNQFSLKLSSVTAADTAVYYCARGVIWNYELREFDYWGQGTLVTVSS VL: not shown | 45 RU | 0.00402 nM | 1.18e-05 s⁻¹ | 2.94e+06 M⁻¹ s⁻¹ | 16.3 h | 51 RU | 0.035 nM | 9.91e-05 s⁻¹ | 2.83e+06 M⁻¹ s⁻¹ | 1.95 h | 43 RU | 0.0158 nM | 2.75e-05 s⁻¹ | 1.74e+06 M⁻¹ s⁻¹ | 7.02 h | no binding (tested: 100 nM) | no binding (tested: 100 nM) |
| H4H10862P (antibody, human IgG4, V domains shown) VH: QVQLQESGPGLVKPSETLSLTCTVSGGSISSYFWSWIRQAPGKGLEWIGFIDYSGSTNYNPSLKSRVTISVDTSKNQFSLKLNSVTAADTAVYYCARQEIINFELNWFDPWGQGTLVTVSS VL: not shown | 58 RU | 0.0255 nM | 5.1e-05 s⁻¹ | 2e+06 M⁻¹ s⁻¹ | 3.77 h | 72 RU | 0.0879 nM | 0.00021 s⁻¹ | 2.39e+06 M⁻¹ s⁻¹ | 0.917 h | 56 RU | 0.0344 nM | 6.49e-05 s⁻¹ | 1.88e+06 M⁻¹ s⁻¹ | 2.97 h | no binding (tested: 100 nM) | no binding (tested: 100 nM) |
| H4H10861P (antibody, human IgG4, V domains shown) VH: QVQLQESGPGLVKPSETLSLTCTVSGASISNYYWSWIRQPPGKGLEWIGYIFYSGNTNYNPSLKSRVTISVDTSKNQFSLKLSSVTAADTAVYYCARVRFSDYELNWFDPWGQGTLVTVSS VL: DIVMTQSPDSLAVFLGERATINCRSSQSVFLGSNNKNYLAWYQQKPGQPPKLLIYWASSRESGVPDRFSGSGSGTDFTLTINSLQAEDVAVYYCQQYFITPLTFGGGTKVEIK | 48 RU | 0.00454 nM | 1.48e-05 s⁻¹ | 3.26e+06 M⁻¹ s⁻¹ | 13 h | 63 RU | 0.0268 nM | 7.8e-05 s⁻¹ | 2.91e+06 M⁻¹ s⁻¹ | 2.47 h | 47 RU | 0.0116 nM | 2.34e-05 s⁻¹ | 2.01e+06 M⁻¹ s⁻¹ | 8.22 h | no binding (tested: 100 nM) | no binding (tested: 100 nM) |
| H2M11008N (antibody, V domains shown, also called H2aM11008N) VH: QVQLQESGPGLVKPSETLSLTCTVSGGSISSHYWSWIRQPPGKGLEWIGFIYYSGSTNFNPSLKSRVTISIDTSKNQFSLKLSSVTAADTAVYYCARHDYNDYELNYFDLWGRGTLASVSS VL: not shown |  |  |  |  |  | 60 RU | 1.08 nM | 0.000793 s⁻¹ | 734000 M⁻¹ s⁻¹ | 0.25 h | 48 RU | 0.435 nM | 0.00021 s⁻¹ | 482000 M⁻¹ s⁻¹ | 0.917 h | no binding (tested: 100 nM) | no binding (tested: 100 nM) |
| H1M11009N (antibody, mouse IgG1, V domains shown, also called 12) VH: EVQLVESGGGLVEPGGSLRLSCVASGFTFSNAWMNWVRQAPGKGLEWVGHIERKTDGGTTDFAAPVKGRFTISRDDSKNTLYLQMNSLKTEDTAVYYCTTVGPYSVPFDYWGQGTLVTVSS VL: not shown |  |  |  |  |  | 30 RU | 21.1 nM | 0.00829 s⁻¹ | 393000 M⁻¹ s⁻¹ | 0.0233 h | 30 RU | 12.5 nM | 0.00304 s⁻¹ | 242000 M⁻¹ s⁻¹ | 0.0667 h | no binding (tested: 100 nM) | no binding (tested: 100 nM) |
| H4H10864P (antibody, human IgG4, V domains shown) VH: QVQLQESGPGLVKPSETLSLTCTVSGGSISNYFWSWIRQPPGKGLEWIGFNYNSGSTNYNPSLKSRVTISVDTSKNQFSLKLSSVTAADTAVYYCARGYNWNYEIAWFDPWGQGTLVTVSS VL: not shown | 78 RU | 0.0128 nM | 4.7e-05 s⁻¹ | 3.68e+06 M⁻¹ s⁻¹ | 4.1 h | 94 RU | 0.0526 nM | 0.000196 s⁻¹ | 3.73e+06 M⁻¹ s⁻¹ | 0.983 h | 75 RU | 0.0168 nM | 4.51e-05 s⁻¹ | 2.68e+06 M⁻¹ s⁻¹ | 4.27 h | no binding (tested: 100 nM) | no binding (tested: 100 nM) |

More lines, now with the values ahead:

| 100 nM Monkey IL-25-MMH Bound (RU) [1] | Kd [1] | koff [1] | kon [1] | t½ [1] | 100 nM Human IL-25-MMH Bound (RU) [2] | Kd [2] | koff [2] | kon [2] | t½ [2] | 100 nM Human IL-25-MMH Bound (RU) [3] | Kd [3] | koff [3] | kon [3] | t½ [3] | binding result [4] | binding result [5] | Binder |
| --- | --- | --- | --- | --- | --- | --- | --- | --- | --- | --- | --- | --- | --- | --- | --- | --- | --- |
| 64 RU | 0.0116 nM | 3.06e-05 s⁻¹ | 2.63e+06 M⁻¹ s⁻¹ | 6.28 h | 65 RU | 0.0651 nM | 0.000208 s⁻¹ | 3.19e+06 M⁻¹ s⁻¹ | 0.933 h | 62 RU | 0.0254 nM | 5.79e-05 s⁻¹ | 2.28e+06 M⁻¹ s⁻¹ | 3.32 h | no binding (tested: 100 nM) | no binding (tested: 100 nM) | H4H10901P (antibody, human IgG4, V domains shown) VH: QLQLQESGPGLVRPSETLSLTCSVSSGSIRSSNYYWGWIRQPPGKGLEWIGNIYYSGNTFYNPSLKGRVTISVDTSKNQFSLKLSSVTATDTAVYYCARQGYSDYELNWFDPWGQGTLVTVSS VL: DIVMTQSPDSLVLSLGERATFNCKSSQSVLDSSNNKNYLAWYQQKPGQPPKLLIYWASTRESGVPDRFSGSGSGTDFSLTISSLQAEDVALYYCQQFYNSPWTFGQGTKVEIK |
| 61 RU | 0.0141 nM | 2.95e-05 s⁻¹ | 2.09e+06 M⁻¹ s⁻¹ | 6.52 h | 72 RU | 0.0529 nM | 0.000154 s⁻¹ | 2.9e+06 M⁻¹ s⁻¹ | 1.25 h | 61 RU | 0.0264 nM | 4.32e-05 s⁻¹ | 1.64e+06 M⁻¹ s⁻¹ | 4.47 h | no binding (tested: 100 nM) | no binding (tested: 100 nM) | H4H10906P (antibody, human IgG4, V domains shown) VH: QVQLQESGPGLVKPSETLSLTCTVSGGSISSYYWSWIRQPPGKGLEWIGFIYYSGSTNYNPSLKSRVTISVDTSKNQFSLKLSSVTAADTAVYYCARHDSDYELYGMDVWGQGTTVTVSS VL: not shown |
| 57 RU | ≤ 0.00871 nM | ≤ 1e-05 s⁻¹ | 1.15e+06 M⁻¹ s⁻¹ | 19.2 h | 65 RU | 0.0508 nM | 7.75e-05 s⁻¹ | 1.53e+06 M⁻¹ s⁻¹ | 2.48 h | 54 RU | 0.0192 nM | 1.73e-05 s⁻¹ | 897000 M⁻¹ s⁻¹ | 11.2 h | no binding (tested: 100 nM) | no binding (tested: 100 nM) | H4H10903P (antibody, human IgG4, V domains shown) VH: QVQLQESGPGLVKPSETLSLTCTVSGGSINSYSWTWIRQPPGKGLEWIGNIYNSENTNYNPSLKSRVTISVDTSKSQVSLKLNSVTAADTAVYYCARTYNWNYEIGAMGVWGQGTTVTVSS VL: not shown |

— patent US20160083466A1 (Regeneron, published 2016)
